Tested on: MS2 coat protein
Experiment: apparent KD of MS2 coat protein; designed switch direction (-1 OFF switch, 1 ON switch): -1; higher = weaker reporter binding
Procedure, shortened: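 Three titration conditions were used: no input, 200 uM small-molecule ligand, and an oligonucleotide input. In each, SNAP-549-labelled MS2 coat protein was raised from 0.7 or 1.5 nM, doubling, to 3 µM over designed RNA switches transcribed on Illumina chips by stalled E. coli RNA polymerase. Curve fits of normalised cluster fluorescence gave values whose per-design median over clusters is the apparent KD.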

[1] = input ligand: microRNA oligo, concentration not stated
[2] = Eterna round: R95, input ligand: FMN 200 uM
[3] = Eterna round: R95, input ligand: microRNA oligo, concentration not stated
[4] = Eterna round: R95, input ligand: none

| Sequence | apparent KD of MS2 coat protein (input ligand: FMN 200 uM) | apparent KD of MS2 coat protein (input ligand: none) | apparent KD of MS2 coat protein [1] | apparent KD of MS2 coat protein [2] | apparent KD of MS2 coat protein [3] | apparent KD of MS2 coat protein [4] |
| --- | --- | --- | --- | --- | --- | --- |
| UUGUUACAUGAGGAUCACCCAUGUGAGGAUAUGGUUCAGUACUGUAAUGUAAAGUACUCCAGAAGGCACAUGUU [1st #28] (Eterna round: R97, puzzle: Exclusion 1) | 693 nM | 264 nM | – | – | – | – |
| UUGUUAUAUGUAGGAUAUGCGUGUUGUUAUUAGGCAGAAGGACAUGAGGAUCACCCAUGUAUGUUGUUGUUAUAUAUUAUAUAU [Title] (Eterna round: R96, puzzle: Exclusion NG 1) | 56.3 nM | 58.8 nM | 28.3 nM | – | – | – |
| UUGUUCUGAGGAUAUACAUGAGGAUCACCCAUGUGUUUCAGCUAGGAGACUAGCGAAAGUAGAAGGCUGUACUC [salish99_ex3_r4_017] (Eterna round: R97, puzzle: Exclusion 3) | 26.9 nM | 24.9 nM | – | – | – | – |
| UUUAAGGGAAUUAAGAUCACAUGAGGAUCACCCAUGUAUAUAUAGGAUAUCAGCUCGUUUAGAGCUGAGAAGGAUAUAUACAUA [ExNG3/6-A2] (Eterna round: R96, puzzle: Exclusion NG 3) | 162 nM | 155 nM | 83.8 nM | – | – | – |
| UUUAAGGUAAUUAAGAUCACAUGAGGAUCACCCAUGUAUAUAUAGGAUAUCAGCUCGAUUAGAGCUGAGAAGGAUAUAUACAUA [ExNG3/6-C1] (Eterna round: R96, puzzle: Exclusion NG 3) | 66.1 nM | 142 nM | 33.3 nM | – | – | – |
| UUUAAUUGUCACAUGGGUGACAUGAGGAUCACCCAUGUCACAAGCUUUUUGUUCGUCUUAUAAUUAACCCAUGUGAC [Stov1/12-B1] (Eterna round: R97, puzzle: Sensor, turn-off variant 1) | 13.9 nM | 13.1 nM | – | – | – | – |
| UUUAAUUUAAUUAAGAUCACAUGAGGAUCACCCAUGUAUAUAUAGGAUAUCAGCUCGUGUAGAGCUGAGAAGGAUAUAUACAUA [ExNG3/4-A3] (Eterna round: R96, puzzle: Exclusion NG 3) | 46 nM | 101 nM | 35.9 nM | – | – | – |
| UUUAAUUUUUUUUUUUUACAAGCUUUUUGCUCGUCUUAUACAUGAGGAUCACCCAUGUAAAUGGAGGAUAAAUUAUC [JMF 29] (puzzle: Sensor v3, turn-off variant 2) | – | – | – | 22.4 nM | 41.1 nM | 19.7 nM |
| UUUAAUUUUUUUUUUUUACAAGCUUUUUGCUCGUCUUAUACAUGAGGAUCACCCAUGUAAAUGGAGGGUAAAUUAUC [JMF 83] (puzzle: Sensor v3, turn-off variant 2) | – | – | – | 14.8 nM | 32 nM | 11.1 nM |
| UUUAAUUUUUUUUUUUUACAAGCUUUUUGCUCGUCUUAUACAUGAGGAUCACCCAUGUAAGUGGAAGAUAAAUUAUC [JMF 10] (puzzle: Sensor v3, turn-off variant 2) | – | – | – | 18.2 nM | 21.4 nM | 16.5 nM |
| UUUAAUUUUUUUUUUUUACAAGCUUUUUGCUCGUCUUAUACAUGAGGAUCACCCAUGUAGGUGGGAAGUAAAUUAUC [JMF 57] (puzzle: Sensor v3, turn-off variant 2) | – | – | – | 33 nM | 97.5 nM | 37.5 nM |
| UUUAAUUUUUUUUUUUUACAAGCUUUUUGCUCGUCUUAUACAUGAGGAUCACCCAUGUGAAUGGAAGAUAAAUUAUC [JMF 8] (puzzle: Sensor v3, turn-off variant 2) | – | – | – | 17.8 nM | 16.3 nM | 18.6 nM |
| UUUAAUUUUUUUUUUUUACAAGCUUUUUGCUCGUCUUAUACAUGAGGAUCACCCAUGUGAAUGGAGGGUAAAUUAUC [JMF 84] (puzzle: Sensor v3, turn-off variant 2) | – | – | – | 19.4 nM | 42.5 nM | 16.8 nM |
| UUUAAUUUUUUUUUUUUACAAGCUUUUUGCUCGUCUUAUACAUGAGGAUCACCCAUGUGGGUGGGAAGUAAAUUAUC [JMF 56] (puzzle: Sensor v3, turn-off variant 2) | – | – | – | 59 nM | 12.6 nM | 110 nM |
| UUUACAAGCUAUAGAUCCCACAUGAGGAUCACCCAUGUUGCUGCCGUGAGGUAGCUUUUAACUAUUGCUCGUCUUAU [JL TOV1 3.36] (Eterna round: R97, puzzle: Sensor, turn-off variant 1) | 150 nM | 181 nM | – | – | – | – |
| UUUAGUUUAGGAUAUGUAGAUUUUAACAUGAGGAUCACCCAUGUAGAUCCUGAAUUAACUACAGAAGGAAACAUUU [Mod of Brourd 13 - Jieux - Exclusion 5] (Eterna round: R97, puzzle: Exclusion 5) | 514 nM | 123 nM | – | – | – | – |
| UUUAUAUAUGAAGGAUAUACUUAACAUGAGGAUCACCCAUGUGGUGUUGUGAGUGAGUGAGUUUAGUAGAAGGUCAAUGAUUUU [JMF's solution 70] (Eterna round: R96, puzzle: Exclusion NG 2) | 810 nM | 360 nM | 306 nM | – | – | – |
| UUUAUGUCAGGAUAUACAUGAGGAUCACCCAUGUAUACCUUAAGGUAUACAUGGGAAUGUAGAAGGGACCUCCU [Omei Ex3 Pseudoloop 8] (Eterna round: R97, puzzle: Exclusion 3) | 26.6 nM | 46.7 nM | – | – | – | – |

| Sequence | apparent KD of MS2 coat protein (input ligand: FMN 200 uM) | apparent KD of MS2 coat protein (input ligand: none) | apparent KD of MS2 coat protein [1] | apparent KD of MS2 coat protein [2] | apparent KD of MS2 coat protein [3] | apparent KD of MS2 coat protein [4] |
| --- | --- | --- | --- | --- | --- | --- |
| UUUAUGUCAGGAUAUGAUUAGAUCUACUUCGGUAGAUCUAAUCAGAAGGGACAUGAGGAUCACCCAUGUUUUUU [Ex4 - 3 - 16] (puzzle: Exclusion 4) | – | – | – | – | 41.6 nM | – |
| UUUAUGUGAGGAUAUAGUACUCCUUCUAUUAUUUUUGAGUACUAGAAGGCACAUGAGGAUCACCCAUGUAGUAC [Ex4 - 3 - 38] (puzzle: Exclusion 4) | – | – | – | – | 22.1 nM | – |
| UUUCUUGGGCAAGGAUAUCCUGUGCGGUUCCGGCUCGUGUCUGUCACAUGAGGAUCACCCAUGUGGGAGAAGGUGCCUGCGGUU [Design 83] (Eterna round: R96, puzzle: Exclusion NG 2) | 15.4 nM | 15.6 nM | 10.7 nM | – | – | – |
| UUUGAUGUUGAGGAUAUGCUUUUUUUUAUUAUAGCAGAAGGCGAUACAUGAGGAUCACCCAUGUUCAUGGCUUU [JR_E6_Sub098] (puzzle: Exclusion 6) | – | – | – | – | 14.1 nM | – |
| UUUGGGCAAGCAUGAUCCCACAUGAGGAUCACCCAUGUGUUCGUCUUAUAGGCUGCUGAGGCUUUUGCCUCGGUGGC [LRO Sensor-off var1-01 loose mod of D91 from Mat747] (Eterna round: R97, puzzle: Sensor, turn-off variant 1) | 751 nM | 965 nM | – | – | – | – |
| UUUGUACAUGAGGAUCACCCAUGUCAGGAUAUGUCAUCGCCGUCUGCCAGACGGCGUCACAGAAGGGACAUGCA [EX1 C.16] (Eterna round: R97, puzzle: Exclusion 1) | 104 nM | 34.1 nM | – | – | – | – |
| UUUGUAUAGGUAGGAUAUACUUUCAAUUUUUUUUUCCUUACAUGAGGAUCACCCAUGUUUACAUUGUAGAAGGACCUCAUUGUU [JR_ExcNG2_Sub049] (Eterna round: R96, puzzle: Exclusion NG 2) | – | – | 325 nM | – | – | – |
| UUUGUUGUUGUGAGGAUAUCGUUGUUAUUUUGAAACGAGAAGGCACAUGAGGAUCACCCAUGUUUGUUGUUGGU [JR_BMOE4_Sub059] (puzzle: Brourd's mod of Exclusion 4) | – | – | – | – | 48.8 nM | – |
| UUUGUUUAUGUAGGAUAUGCCUGGCGUGCCUUCGCAGAAGGACAUGAGGAUCACCCAUGUAUUGCGGUCUGCGUUCAGAUCGCG [salish99_ExNG1_r4_029] (Eterna round: R96, puzzle: Exclusion NG 1) | 52 nM | 43.2 nM | 34.8 nM | – | – | – |
| UUUGUUUAUGUAGGAUAUGCCUGGCGUGCCUUUGCAGAAGGACAUGAGGAUCACCCAUGUAACAUGAGGCUCACCCAUGUCGCC [salish99_ExNG1_r04_113] (Eterna round: R96, puzzle: Exclusion NG 1) | 134 nM | 165 nM | 91.6 nM | – | – | – |
| UUUGUUUAUGUAGGAUAUGCCUGGCGUGCCUUUGCAGAAGGACAUGAGGAUCACCCAUGUAACAUGAGGCUCACCCAUGUCGCU [salish99_ExNG1_r04_111] (Eterna round: R96, puzzle: Exclusion NG 1) | 240 nM | 292 nM | 180 nM | – | – | – |
| UUUUAACAAGCGAGGUCCUACAUGAGGAUCACCCAUGUAUGUCAUGGAUUCCAUGGUCUUUUUGCUCGUCUUGUGUG [jl TITIN mod 8] (Eterna round: R97, puzzle: Sensor, turn-off variant 1) | 103 nM | 105 nM | – | – | – | – |
| UUUUAACAUGAGGAUCACCCAUGUGAGGAUAUCGAAAUUUAUAUUAAUAUUAUUAAAACGAGAAGGCACAUUUU [JMF 35] (puzzle: Exclusion 1) | – | – | – | – | 62.9 nM | – |
| UUUUAACAUGAGGAUCACCCAUGUGAGGAUAUCGAAAUUUAUAUUUAUAUUAAUAUAUCGAGAAGGCACAUUUU [JMF 80] (puzzle: Exclusion 1) | – | – | – | – | 93.1 nM | – |
| UUUUAACAUGAGGAUCACCCAUGUGAGGAUAUCGAAAUUUAUAUUUAUAUUAAUUAUUCGAGAAGGCACAUUUU [JMF 85] (puzzle: Exclusion 1) | – | – | – | – | 131 nM | – |
| UUUUAACAUGAGGAUCACCCAUGUGAGGAUAUCGUUAUUUUUAUUAAUAUUAAUAAAACGAGAAGGCACAUUUU [JMF 14] (puzzle: Exclusion 1) | – | – | – | – | 98.3 nM | – |
| UUUUACAAGCUAAGAUCCUACAUGAGGAUCACCCAUGUGGUCCGGUGACGUGAGUCACCGGACUUAGCUCGUCUUGG [salish99_S_TOV1_R5_087] (Eterna round: R97, puzzle: Sensor, turn-off variant 1) | 69.5 nM | 84.7 nM | – | – | – | – |

From the supplement of paper PMC9170038
